Measurements: patent US20150166606A1 (RA PHARMACEUTICALS, published 2015)
Each block holds one binder with its values, some of them ahead of it. Numbered stars: 1 amine (or outer) side, 2 acyl side, 3 side chain; on linkers, the order of the positions; unused ones are H or OH. Bridge positions count the residues as written; N and C are the ends. Square brackets hold non-standard residues; d marks the D form. Ends that are not written are not given here. mXylyl = xylyl linker from dibromoxylene joining the two cysteines; Phe(3-CH2NH2) = O=C([C@H](Cc1cccc(CN[*:3])c1)N[*:1])[*:2]; Ala(1H-tetrazol-5-yl) = N[C@@H](Cc1nnn[nH]1)C(=O)O; des‑NH2 = missing amino-terminal amine group; Phe(4-CH2NH2) = NCc1ccc(C[C@H](N)C(=O)O)cc1; hexyltetrazolyl‑mXylyl = not defined here; η‑ω‑MeR = eta-omega methylated arginine; pXylylene = c1cc(C[*:2])ccc1C[*:1]; NMeE = CN[C@@H](CCC(=O)O)C(=O)O; Gly(cPr) = N[C@H](C(=O)O)C1CC1; dPhg = N[C@@H](C(=O)O)c1ccccc1; Chg = N[C@H](C(=O)O)C1CCCCC1; Pen = CC(C)(S)[C@H](N)C(=O)O; Phg = N[C@H](C(=O)O)c1ccccc1; Tle = CC(C)(C)[C@H](N)C(=O)O; hLys = NCCCCC[C@H](N)C(=O)O; oXylyl = ortho-xylyl linker; mLutidine = meta-lutidine; Nle = CCCC[C@H](N)C(=O)O; Nva = CCC[C@H](N)C(=O)O; Mpa = O=C(O)CCS; Sar = CNCC(=O)O

Biological target: Activated human plasma kallikrein (Enzyme Research Laboratories, HPKa 1303) (human, UniProt P03952 20-638)
Sequence (P03952 20-638 limits assumed): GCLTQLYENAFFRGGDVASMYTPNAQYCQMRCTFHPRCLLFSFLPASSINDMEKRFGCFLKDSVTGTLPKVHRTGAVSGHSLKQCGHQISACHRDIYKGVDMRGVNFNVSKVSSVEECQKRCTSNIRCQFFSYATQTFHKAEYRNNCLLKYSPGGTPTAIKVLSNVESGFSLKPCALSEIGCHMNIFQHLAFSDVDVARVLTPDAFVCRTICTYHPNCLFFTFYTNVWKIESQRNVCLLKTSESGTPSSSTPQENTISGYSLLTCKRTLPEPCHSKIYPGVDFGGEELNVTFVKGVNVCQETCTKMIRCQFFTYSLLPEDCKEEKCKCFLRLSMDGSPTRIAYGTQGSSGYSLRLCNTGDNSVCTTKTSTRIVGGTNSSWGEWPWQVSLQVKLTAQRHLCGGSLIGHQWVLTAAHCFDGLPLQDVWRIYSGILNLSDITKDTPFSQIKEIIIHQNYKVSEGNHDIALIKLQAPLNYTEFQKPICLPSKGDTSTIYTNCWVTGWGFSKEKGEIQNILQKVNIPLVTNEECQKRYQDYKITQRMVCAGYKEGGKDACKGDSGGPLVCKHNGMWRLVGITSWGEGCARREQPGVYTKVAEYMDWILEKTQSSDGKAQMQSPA
Test: cell-based or functional assay

Binder: [Nva]CES[Phg]CR[Tle]-NH2 (linker 2-6 via mXylyl) [R2013]
Avg. IC50: 6.8 nM

Binder: MC[Ala(1H-tetrazol-5-yl)]SICRV-NH2 (linker 2-6 via mXylyl) [R2020]
Avg. IC50: 13 nM

Binder: MCESICRVN-NH2 (linker 2-6 via mXylyl) [R2014]
Avg. IC50: 37.5 nM

B3: R2027 (peptide)
peptide: MC[NMeE]ESICRV-NH2
modifications: linker 2-7 via mXylyl; not fully specified; printed as [mXylyl(2,6)]MC-nMeE-ESICRV-NH2
Avg. IC50: 990 nM

B4: R2028 (peptide)
peptide: MCESICRV-NH2
modifications: linker 2-6 via hexyltetrazolyl‑mXylyl; reading uncertain; also: printed as [hexyltetrazolyl-mXylyl(2,6)]MCESICRV-NH2
Avg. IC50: 714 nM

Binder: [Nva]CESIC[Phe(3-CH2NH2)]V-NH2 (linker 2-6 via mXylyl) [R2022]
Avg. IC50: 21000 nM

Binder: [Nva][Pen]ESI[Pen]RV-NH2 (linker 2-6 via mXylyl) [R2034]
Avg. IC50: > 100000 nM

Binder: MCESICRV-NH2 (cysteine pairing not given here) [R2007]
Avg. IC50: 2000 nM

Binder: MCASICRV-NH2 (linker 2-6 via mXylyl) [R2024]
Avg. IC50: 41.9 nM

Binder: [Nva]CESIC[hLys]V-NH2 (linker 2-6 via mXylyl) [R2029]
Avg. IC50: 8840 nM

Binder: MCESICR-NH2 (linker 2-6 via mXylyl) [R2015]
Avg. IC50: 16500 nM

Binder: Ac-[Nva]CESIC[hLys]V-NH2 (linker 2-6 via mXylyl) [R2033]
Avg. IC50: 8650 nM

Binder: MCESACRV-NH2 (linker 2-6 via mXylyl) [R2017]
Avg. IC50: 2140 nM

Binder: ACESICRV-NH2 (linker 2-6 via mXylyl) [R2025]
Avg. IC50: 9.5 nM

Binder: [Nva]CESIC[Phe(4-CH2NH2)]V-NH2 (linker 2-6 via mXylyl) [R2021]
Avg. IC50: 2000 nM

Binder: MCEAICRV-NH2 (linker 2-6 via mXylyl) [R2018]
Avg. IC50: 37.3 nM

Binder: MCESICRA-NH2 (linker 2-6 via mXylyl) [R2016]
Avg. IC50: 3900 nM

Binder: [Nva]CESI[Pen]RV-NH2 (linker 2-6 via mXylyl) [R2032]
Avg. IC50: 1030 nM

Binder: MCETICRVLKYSD-NH2 (linker 2-6 via mXylyl) [R2005]
Avg. IC50: 1.8 nM

Binder: MCESICRV-NH2 (linker 2-6 via trans‑butenyl) [R2011]
Avg. IC50: 12800 nM

Binder: [Nva][Pen]ESICRV-NH2 (linker 2-6 via mXylyl) [R2031]
Avg. IC50: 1460 nM

Continued, values first:

Avg. IC50: 59.3 nM
Binder: Ac-CESICRVLR-NH2 (linker 1-5 via mXylyl) [R2046]

Avg. IC50: 187 nM
Binder: Ac-CESICRVL-NH2 (linker 1-5 via mXylyl) [R2045]

Avg. IC50: 16300 nM
B1: R2049 (peptide)
peptide: {des‑NH2}-CICRV-NH2
modifications: linker 1-3 via mXylyl; not fully specified (residue 1); printed as [mXylyl(1,3)](des-NH2)C-ICRV-NH2

Avg. IC50: 1400 nM
Binder: Ac-CAS[Tle]CR[Tle]-NH2 (linker 1-5 via mXylyl) [R2048]

Avg. IC50: 2470 nM
B2: R2062 (peptide)
peptide: Ac-CAS[Gly(cPr)]CRV-NH2
modifications: linker 1-5 via mXylyl; not fully specified (residue 2); printed as [mXylyl(1,5)]Ac-C-a-S-Cppg-CRV-NH2

Avg. IC50: 29.5 nM
Binder: Ac-CAP[Phg]CR[Tle]-NH2 (linker 1-5 via mXylyl) [R2058]

Avg. IC50: 5340 nM
Binder: Ac-CAS[Phg]C[Phe(4-CH2NH2)][Tle]-NH2 (linker 1-5 via mXylyl) [R2053]

Avg. IC50: 2.2 nM
Binder: Ac-CESICRVLRY-NH2 (linker 1-5 via mXylyl) [R2055]

Avg. IC50: 39.7 nM
Binder: MCESICRV-NH2 (linker 2-6 via 3‑methoxy‑mXylyl) [R2102]

Avg. IC50: 299 nM
Binder: Ac-CESICRVLK-NH2 (linker 1-5 via mXylyl) [R2038]

Avg. IC50: 74.2 nM
Binder: Ac-CA[Sar][Phg]CR[Tle]-NH2 (linker 1-5 via mXylyl) [R2052]

Avg. IC50: 733 nM
Binder: MCESICKV-NH2 (linker 2-6 via mXylyl) [R2040]

Avg. IC50: 14.9 nM
Binder: [Mpa][code a]S[Phg]CR[Tle]-NH2 (linker 1-5 via mXylyl) [R2064]

Avg. IC50: 645 nM
Binder: MCESICRV-NH2 (linker 2-6 via mLutidine) [R2044]

Avg. IC50: 151 nM
B5: R2063 (peptide)
peptide: Ac-CASVCRV-NH2
modifications: linker 1-5 via mXylyl; not fully specified (residue 2); printed as [mXylyl(1,5)]Ac-C-a-SVCRV-NH2

Avg. IC50: 12.7 nM
B6: R2061 (peptide)
peptide: Ac-CAS[Phg]CR[Tle]-NH2
modifications: linker 1-5 via mXylyl; not fully specified (residue 2); printed as [mXylyl(1,5)]Ac-C-a-S-Phg-CR-Tbg-NH2

Avg. IC50: 959 nM
Binder: Ac-C[dA]S[dPhg]CR[Tle]-NH2 (linker 1-5 via mXylyl) [R2060]

Avg. IC50: 5000 nM
Binder: Ac-[Nva]CESIC[η‑ω‑MeR]V-NH2 (linker 2-6 via mXylyl) [R2054]

Avg. IC50: 3190 nM
Binder: MCESICRV-NH2 (linker 2-6 via oXylyl) [R2042]

Avg. IC50: 11.9 nM
Binder: CAS[Phg]CR[Tle]-NH2 (linker 1-5 via mXylyl) [R2039]

Avg. IC50: 7200 nM
Binder: [Nva]CESICRF-NH2 (linker 2-6 via mXylyl) [R2035]

Avg. IC50: 617 nM
Binder: MCESICRV-NH2 (linker 2-6 via pXylylene) [R2043]

Avg. IC50: 410 nM
Binder: Ac-CSICRV-NH2 (linker 1-4 via mXylyl) [R2037]

Avg. IC50: 11 nM
Binder: Ac-MCES[Chg]CRV-NH2 (linker 2-6 via mXylyl) [R2050]

Avg. IC50: 1.9 nM
Binder: Ac-CESICRVLRYS-NH2 (linker 1-5 via mXylyl) [R2056]

Avg. IC50: 0.943 nM
Binder: Ac-CESICRVLRYSE-NH2 (linker 1-5 via mXylyl) [R2057]

Avg. IC50: 6.1 nM
Binder: Ac-C[Nle]S[Phg]CR[Tle]-NH2 (linker 1-5 via mXylyl) [R2065]

Avg. IC50: 425 nM
Binder: Ac-CASFCR[Tle]-NH2 (linker 1-5 via mXylyl) [R2059]
